Data set [1] has as its system GFP(3TAG). The experiment in a line: nsAA library screening, GFP(3TAG) fluorescence in 384 well plates. Type of data set: cell-based, E. coli. As to conditions: GFP(3TAG) production in the presence of pAcF, pAzF and 236 other nsAAs.
The subject of data set [2] is tRNA. Kind of data set: Aminoacylation assay (tRNA charging). Type of data set: biochemical. As to conditions: for Fold change: relative to progenitor pAcFRS. The method in brief:
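37 °C aminoacylation with 500 nM enzyme, 5 μM unlabeled plus 100 nM 32P-labeled T7-transcribed tRNA, and 2 mM amino acids in pH 7.2 HEPES, 10 mM ATP and 10 mM MgCl2. Sampled at 5, 20 and 60 min, then nuclease P1 digestion. AMP and AA-AMP separated by PEI-cellulose TLC and phosphorimaged to give the aminoacylated/total tRNA ratio.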

Entries after “also recorded” stand apart in the source; their conditions may differ.

B1: pAzFRS.1.t1: pAcFRS variant D158V, I159M, L162D, A167Y, R257G, SEQ ID NO: 11 (protein)
chain: MDEFEMIKRNTSEIISEEELREVLKKDEKSALIGFEPSGKIHLGHYLQIKKMIDLQNAGFDIIILLADLHAYLNQKGELDEIRKIGDYNKKVFEAMGLKAKYVYGSEFQLDKDYTLNVYRLALKTTLKRARRSMELIAREDENPKVAEVIYPIMQVNVMHYDGVDVYVGGMEQRKIHMLARELLPKKVVCIHNPVLTGLDGEGKMSSSKGNFIAVDDSPEEIRAKIKKAYCPAGVVEGNPIMMEIAKYFLEYPLTIKGPEKFGGDLTVNSYEELESLFKNKELHPMRLKNAVAEELIKILEPIRKRL
On to B1, for which the “nsAA specificity (polyspecificity)” value in data set [1] was “specific for pAzF; also recorded: exceptional specificity toward pAzF with almost complete exclusion of any other nsAA”. For the same molecule, in data set [2] (nsAA pAzF), the Km worked out at 24 ± 3 µM, the kcat was 0.49 ± 0.17 ×10^−3 s^−1 and the Fold change is on record as 3.29.

B2: pAcFRS.1.t1: pAcFRS variant A167D, R257G, SEQ ID NO: 5 (protein)
chain: MDEFEMIKRNTSEIISEEELREVLKKDEKSALIGFEPSGKIHLGHYLQIKKMIDLQNAGFDIIILLADLHAYLNQKGELDEIRKIGDYNKKVFEAMGLKAKYVYGSEFQLDKDYTLNVYRLALKTTLKRARRSMELIAREDENPKVAEVIYPIMQVNGCHYRGVDVDVGGMEQRKIHMLARELLPKKVVCIHNPVLTGLDGEGKMSSSKGNFIAVDDSPEEIRAKIKKAYCPAGVVEGNPIMEIAKYFLEYPLTIKGPEKFGGDLTVNSYEELESLFKNKELHPMRLKNAVAEELIKILEPIRKRL
B2: the “nsAA specificity (polyspecificity)” value in data set [1] is given as “polyspecifity for at least pAcF, pAzF, StyA, 4IF, 4BrF, 4ClF, 4MeF, 4Cf3F, MeY, 4NO2F, 4BuF, BuY, 2NaA, PheF”. Also, in data set [2] (nsAA pAcF), the Km turned out to be 16 ± 4 µM, the kcat is 1.12 ± 0.14 ×10^−3 s^−1 and the Fold change is given as 9.58. Also, in data set [2] (nsAA pAzF), the Michaelis-Menten constant (Km) amounted to 16 ± 1 µM, the kcat was 0.63 ± 0.12 ×10^−3 s^−1 and the Fold change is 6.33.

B3: pAcFRS: progenitor M. jannaschii based p-acetyl-L-phenylalanine AARS, SEQ ID NO:1 (Young, et al., 2010) (protein, listed as Methanocaldococcus jannaschii)
chain: MDEFEMIKRNTSEIISEEELREVLKKDEKSALIGFEPSGKIHLGHYLQIKKMIDLQNAGFDIIILLADLHAYLNQKGELDEIRKIGDYNKKVFEAMGLKAKYVYGSEFQLDKDYTLNVYRLALKTTLKRARRSMELIAREDENPKVAEVIYPIMQVNGCHYRGVDVAVGGMEQRKIHMLARELLPKKVVCIHNPVLTGLDGEGKMSSSKGNFIAVDDSPEEIRAKIKKAYCPAGVVEGNPIMEIAKYFLEYPLTIKRPEKFGGDLTVNSYEELESLFKNKELHPMRLKNAVAEELIKILEPIRKRL
For the molecule B3, in data set [2] (nsAA pAcF), the Km amounted to 34 ± 6 µM, the kcat is recorded as 0.25 ± 0.04 ×10^−3 s^−1 and the Fold change was determined as 1. Also, in data set [2] (nsAA pAzF), the Km turned out to be 34 ± 7 µM, the kcat was 0.23 ± 0.03 ×10^−3 s^−1 and the Fold change was found to be 1.

B4: pAzFRS.2.t1: pAcFRS variant E107T, F108Y, Q109M, R257G, SEQ ID NO: 14 (protein)
chain: MDEFEMIKRNTSEIISEEELREVLKKDEKSALIGFEPSGKIHLGHYLQIKKMIDLQNAGFDIIILLADLHAYLNQKGELDEIRKIGDYNKKVFEAMGLKAKYVYGSTYMLDKDYTLNVYRLALKTTLKRARRSMELIAREDENPKVAEVIYPIMQVNGCHYRGVDVAVGGMEQRKIHMLARELLPKKVVCIHNPVLTGLDGEGKMSSSKGNFIAVDDSPEEIRAKIKKAYCPAGVVEGNPIMEIAKYFLEYPLTIKGPEKFGGDLTVNSYEELESLFKNKELHPMRLKNAVAEELIKILEPIRKRL
As to B4, the “nsAA specificity (polyspecificity)” value in data set [1] is reported as “polyspecific for at least pAcF, pAzF, StyA, 4IF, 4BrF, 4ClF, 4MeF, 4Cf3F, MeY, 4NO2F, 4BuF, BuY, 2NaA, PheF”. Moreover, in data set [2] (nsAA pAzF), the Km is 14 ± 3 µM, the kcat is reported as 0.71 ± 0.13 ×10^−3 s^−1 and the Fold change is reported as 8.17.

B5: pAcFRS.2.t1: pAcFRS variant L65V, A167D, R257G, SEQ ID NO: 8 (protein)
chain: MDEFEMIKRNTSEIISEEELREVLKKDEKSALIGFEPSGKIHLGHYLQIKKMIDLQNAGFDIIIVLADLHAYLNQKGELDEIRKIGDYNKKVFEAMGLKAKYVYGSEFQLDKDYTLNVYRLALKTTLKRARRSMELIAREDENPKVAEVIYPIMQVNGCHYRGVDVDVGGMEQRKIHMLARELLPKKVVCIHNPVLTGLDGEGKMSSSKGNFIAVDDSPEEIRAKIKKAYCPAGVVEGNPIMEIAKYFLEYPLTIKGPEKFGGDLTVNSYEELESLFKNKELHPMRLKNAVAEELIKILEPIRKRL
As for B5, the “nsAA specificity (polyspecificity)” value in data set [1] is “polyspecifity for at least pAcF, pAzF, StyA, 4IF, 4BrF, 4ClF, 4MeF, 4Cf3F, MeY, 4NO2F, 4BuF, BuY, 2NaA, PheF”. Also, the “decrease in tRNA charging for pAzF compared with pAcF” value in data set [2] (in vitro biochemical analysis) is listed as 2.8 fold. Besides, in data set [2] (nsAA pAcF), the Km came to 18 ± 2 µM, the kcat is 0.54 ± 0.15 ×10^−3 s^−1 and the Fold change is listed as 4.10. Also, in data set [2] (nsAA pAzF), the Km came to 24 ± 7 µM, the kcat is reported as 0.22 ± 0.05 ×10^−3 s^−1 and the Fold change is listed as 1.47.

Source of the values: US10501734B2, “Compositions and methods of use thereof for making polypeptides with many instances of nonstandard amino acids” (Yale University, priority 2014, dated 2019).
